Data published in paper PMC6769508.

Assays:
[1] = target: SyKaiBDD, SyKaiB with Arg22 and Lys25 substituted with aspartate residues (Synechococcus elongatus PCC 7942) (UniProt Q79PF5)
[2] = target: SyKaiB, wild-type KaiB of Synechococcus elongatus PCC 7942 (Synechococcus elongatus PCC 7942) (UniProt Q79PF5)

Binder	period of the in vitro oscillation of the phosphorylated KaiC level (SyKaiA 1.5 µM, SyKaiC 3.4 µM, SyKaiBDD 4.2 µM, 30 °C) [1] [h]	period of the in vitro oscillation of the phosphorylated KaiC level (SyKaiA 1.5 µM, SyKaiC 3.4 µM, SyKaiBWT 4.2 µM, 30 °C) [2] [h]
SyKaiBDD, SyKaiB with Arg22 and Lys25 substituted with aspartate residues (natural protein) MSPRKTYILKLYVAGNTPNSVDALDTLKNILEVEFQGVYALKVIDVLKNPQLAEEDKILATPTLAKVLPLPVRRIIGDLSDREKVLIGLDLLYGELQDSDDF	30.4	–
SyKaiB, wild-type KaiB of Synechococcus elongatus PCC 7942 (natural protein) MSPRKTYILKLYVAGNTPNSVRALKTLKNILEVEFQGVYALKVIDVLKNPQLAEEDKILATPTLAKVLPLPVRRIIGDLSDREKVLIGLDLLYGELQDSDDF	–	23.2
